This test deals with C. crescentus cells. In words: FRAP analysis of MipZ-YFP mobility. The test is classed as cell-based, Caulobacter crescentus. The source says: Due to their association with chromosomal DNA, MipZ dimers should display slower diffusion rates than monomers. To test this hypothesis, we monitored the mobility of wild-type and mutant MipZ-YFP fusions using fluorescence recovery after photobleaching (FRAP) analysis. […] Concurrent with the reappearance of fluorescence at the bleached pole, the intensity of the unbleached focus decreased, while the total integrated fluorescence remained constant within the cell.
Figure 5 FRAP Analysis of MipZ Diffusion (A and C) FRAP experiments on cells producing a wild-type MipZ-YFP fusion (A) or a MipZ-D42A fusion (C). Cells of strain MT177 (WT) or MT197 (D42A) were shifted from M2GN to M2G medium containing 0.3% xylose and cultivated for another 4 hr to deplete wild-type MipZ and synthesize the indicated fusion protein instead. Single polar MipZ-YFP foci were photo-bleached (white circles), and recovery was followed by fluorescence microscopy (scale bars represent 2 μm). (B, D, and E) Quantification of the recovery rate in cells producing YFP fusions to wild-type MipZ (MT177) (B), MipZ-D42A (MT197) (D), and MipZ-G14V (MT178) (E). FRAP experiments were performed as described in (A). The graphs show the average relative integrated intensities of the bleached region, an unbleached region of equal size at the opposite pole, and the remaining area of the cell plotted as a function of time. The recovery half-times (t1/2), as determined by fitting of the data to single-exponential functions (red lines), are given on top of the graphs. […] (F) Quantification of the recovery rate of MipZ-YFP in cells depleted of ParB. Strain MT148 was grown in M2G medium for 15 hr and analyzed as described in (B), (D), and (E). […] The recovery half-time measured before depletion of ParB was 11.8 s (±1.2 s; n = 34) (data not shown). See also Figure S6. […] It is uncertain whether they count as substance results. / All panels: the lowered sign after t is very small and is read as ½.
Figure S6. Fluorescence-recovery-after-photobleaching analysis of MipZ mobility, Related to Figure 5.
(A) Representative images of FRAP experiments on cells producing mutant MipZ-YFP fusions. Cells of strains DK2 (K13A), MT178 (G14V) and MT179 (K18Q), which express wild-type mipZ under the control of the ammonium-repressible PnrtX promoter and the indicated mipZ-eyfp allele under the control of the xylose-inducible Pxyl promoter, were shifted from M2GN to M2G medium containing 0.3% xylose and cultivated for another 4 h to deplete wild-type MipZ and synthesize the fusion protein instead. Single polar regions were photo-bleached, and recovery was followed by fluorescence microscopy (bars: 2 µm). The bleached regions are highlighted by circles.
(B) Cells of strain MT177 (ΔmipZ PnrtX::mipZ Pxyl::mipZ-eyfp) were grown as described in (A). Chloramphenicol (20 µg/ml) was added to the growing culture 25 min prior to harvest as well as to the agarose pads used for the FRAP experiments. Fitting of the data to a single exponential equation yielded a recovery half-time of 12.4 s (± 0.5 s).
(C) Cells of strain MT97 (mipZ-eyfp) were grown in M2G medium and subjected to FRAP analysis. The fitted curve corresponds to a recovery half-time of 12.0 s (± 1.2 s).
(D and E) Cells of strains (D) DK2 (ΔmipZ PnrtX::mipZ Pxyl::mipZK13A-eyfp) and (E) MT179 (ΔmipZ PnrtX::mipZ Pxyl::mipZK18Q-eyfp) were grown as described in (A) and subjected to FRAP analysis. […]

B1: MipZ: P loop ATPase and cell division inhibitor of Caulobacter crescentus; hexahistidine-tagged in vitro, YFP fusion in FRAP (protein)
chain: MAETRVIVVGNEKGGAGKSTIAVHLVTALLYGGAKVAVIDLDLRQRTSARFFENRRAWLDNKKIELPEPLALNLSDNDVALAERPEEEQVAGFEAAFARAMAECDFILIDTPGGDSAITRMAHGRADLVVTPMNDSFVDFDMLGTVDPVTLELTKPSLYSLTVWEGRKQRALSGQRQAMDWVVLRNRLATTEARNRKRLEDRLNALAKRVGFRIGPGLRDRVIYRELFPFGLTIADLSPQVRPVPVSLQHLAARQELRALMHSLGLSAYSGETMLAAQ
modifications: left off: His6, end not stated, state not stated
notes: hexahistidine-tagged in vitro, YFP fusion in FRAP
In the case of B1, the “recovery half-time (t1/2)” value (MipZ-YFP in cells depleted of ParB (strain MT148)) is on record as 3.2 s and the “recovery half-time (t1/2)” value (YFP fusion, xylose-induced, cells depleted of wild-type MipZ, polar region bleached) was determined as 10.7 s. Moreover, the recovery half-time by setting is: (strain MT97 (mipZ-eyfp), M2G medium, not inducible promoter) 12.0 s; (strain MT148 before depletion of ParB) 11.8 s; (strain MT177, chloramphenicol 20 µg/ml) 12.4 s.

(Values after paper PMC3355305, “Localized Dimerization and Nucleoid Binding Drive Gradient Formation by the Bacterial Cell Division Inhibitor MipZ” (Molecular Cell, 2012).)
